According to paper PMC1950529:
Where two headings read alike, the source gives them in different places.

Tests used:
[1] = molecular target: Thermus aquaticus DnaB helicase (Thermus aquaticus); experiment: SEC
[2] = molecular target: Thermus aquaticus DnaB helicase (Thermus aquaticus); experiment: SEC; remark: listed apart in the source

stoichiometry N [1]: 6 | stoichiometry N [2]: 6
Substance: Thermus aquaticus DnaB helicase (enzyme)
